The supplement of paper PMC10567573

B1: RPAIN (parent)
chain: ISEYEKSLQFDEKCLSIMLAEWEA

Variants of: B1
Assay: protein stability index of a GFP-peptide fusion (GPS, HEK-293T) (PSI 1-6); higher = more stable
Settings: c terminus: a fixed tail appended
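Also: lentivirally expressed fusions sorted by FACS into six bins by GFP to DsRed ratio, PSI derived from sequencing read proportions per bin multiplied by bin number.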

With ISEYEKSLQFDEKCLSIMLAEWAA [E23A] as the variant, how does the protein stability index read?
Its protein stability index is 3.07.

Which protein stability index does the source give for ISEYEKSLQFDEKCLSIMLAEWQA [E23Q] here?
The protein stability index was 2.06.

Which protein stability index does the source give for ISEYEKSLQFDEKCLSIMLAEWTA [E23T] here?
Its protein stability index is 1.76.

Which protein stability index does the source give for ISEYEKSLQFDEKCLSIMLAEWFA [E23F] here?
Its protein stability index is 2.53.

Which protein stability index does the source give for ISEYEKSLQFDEKCLSIMLDEWEA [A20D] here?
The protein stability index was 1.91.

For ISEYEKSLQFDEKCLSIMLFEWEA [A20F], which protein stability index is on record?
Its protein stability index is 1.54.

For ISEYEKSLQFDEKCLSIMLQEWEA [A20Q], which protein stability index is on record?
Its protein stability index is 2.19.

Which protein stability index does the source give for ISEYEKSLQFDEKCLSIMLHEWEA [A20H] here?
Its protein stability index is 1.64.

Which protein stability index does the source give for ISEYEKSLQFDEKCLSIMLVEWEA [A20V] here?
The protein stability index was 1.8.

With ISEYEKSLQFDEKCLSIMLEEWEA [A20E] as the variant, how does the protein stability index read?
The protein stability index was 1.98.

With ISEYEKSLQFDEKCLSIMLGEWEA [A20G] as the variant, how does the protein stability index read?
The protein stability index was 2.01.

For ISEYEKSLQFDEKCLSIMLMEWEA [A20M], which protein stability index is on record?
The protein stability index was 2.49.

Which protein stability index does the source give for ISEYEKSLQFDEKCLSIMLREWEA [A20R] here?
The protein stability index was 1.25.

For ISEYEKSLQFDEKCLSIMLSEWEA [A20S], which protein stability index is on record?
The protein stability index was 1.88.

Which protein stability index does the source give for ISEYEKSLQFDEKCLSIMLIEWEA [A20I] here?
The protein stability index was 1.48.

Which protein stability index does the source give for ISEYEKSLQFDEKCLSIMLLEWEA [A20L] here?
Its protein stability index is 1.4.

For ISEYEKSLQFDEKCLSIMLYEWEA [A20Y], which protein stability index is on record?
Its protein stability index is 2.08.

For ISEYEKSLQFDEKCLSIMLPEWEA [A20P], which protein stability index is on record?
Its protein stability index is 3.02.

Which protein stability index does the source give for ISEYEKSLQFDEKCLSIMLTEWEA [A20T] here?
Its protein stability index is 2.25.

With ISEYEKSLQFDEKCLSIMLNEWEA [A20N] as the variant, how does the protein stability index read?
Its protein stability index is 1.44.

For ISEYEKSLQFDEKCLSIMLCEWEA [A20C], which protein stability index is on record?
Its protein stability index is 1.77.

With ISEYEKSLQFDEKCLSIMLKEWEA [A20K] as the variant, how does the protein stability index read?
Its protein stability index is 1.64.

With ISEYEKSLQFDEKCLSIMLAEMEA [W22M] as the variant, how does the protein stability index read?
Its protein stability index is 1.78.

For ISEYEKSLQFDEKCLSIMLAENEA [W22N], which protein stability index is on record?
Its protein stability index is 4.3.

For ISEYEKSLQFDEKCLSIMLAEEEA [W22E], which protein stability index is on record?
The protein stability index was 4.21.

Which protein stability index does the source give for ISEYEKSLQFDEKCLSIMLAEDEA [W22D] here?
The protein stability index was 3.88.

Which protein stability index does the source give for ISEYEKSLQFDEKCLSIMLAEGEA [W22G] here?
Its protein stability index is 1.72.

For ISEYEKSLQFDEKCLSIMLAELEA [W22L], which protein stability index is on record?
Its protein stability index is 2.15.

With ISEYEKSLQFDEKCLSIMLAEFEA [W22F] as the variant, how does the protein stability index read?
The protein stability index was 2.79.

With ISEYEKSLQFDEKCLSIMLAEPEA [W22P] as the variant, how does the protein stability index read?
The protein stability index was 3.93.

For ISEYEKSLQFDEKCLSIMLAECEA [W22C], which protein stability index is on record?
The protein stability index was 1.5.

For ISEYEKSLQFDEKCLSIMLAEYEA [W22Y], which protein stability index is on record?
Its protein stability index is 1.69.

Which protein stability index does the source give for ISEYEKSLQFDEKCLSIMLAETEA [W22T] here?
The protein stability index was 2.03.

Which protein stability index does the source give for ISEYEKSLQFDEKCLSIMLAEKEA [W22K] here?
Its protein stability index is 4.47.

Which protein stability index does the source give for ISEYEKSLQFDEKCLSIMLAEIEA [W22I] here?
Its protein stability index is 1.68.

With ISEYEKSLQFDEKCLSIMLAEVEA [W22V] as the variant, how does the protein stability index read?
Its protein stability index is 1.52.

For ISEYEKSLQFDEKCLSIMLAEREA [W22R], which protein stability index is on record?
Its protein stability index is 3.37.

Which protein stability index does the source give for ISEYEKSLQFDEKCLSIMLAEQEA [W22Q] here?
Its protein stability index is 3.08.

With ISEYEKSLQFDEKCLSIMLAESEA [W22S] as the variant, how does the protein stability index read?
The protein stability index was 2.11.

With ISEYEKSLQFDEKCLSIMLAEHEA [W22H] as the variant, how does the protein stability index read?
The protein stability index was 3.98.

With ISEYEKSLQFDEKCLSIMLAEAEA [W22A] as the variant, how does the protein stability index read?
The protein stability index was 2.18.

For ISEYEKSLQFDEKCLSIMLAEWEY [A24Y], which protein stability index is on record?
Its protein stability index is 1.25.

For ISEYEKSLQFDEKCLSIMLAEWEM [A24M], which protein stability index is on record?
The protein stability index was 3.31.

With ISEYEKSLQFDEKCLSIMLAEWEN [A24N] as the variant, how does the protein stability index read?
Its protein stability index is 2.32.

Which protein stability index does the source give for ISEYEKSLQFDEKCLSIMLAEWEI [A24I] here?
Its protein stability index is 1.96.

For ISEYEKSLQFDEKCLSIMLAEWEP [A24P], which protein stability index is on record?
The protein stability index was 2.49.

Which protein stability index does the source give for ISEYEKSLQFDEKCLSIMLAEWEQ [A24Q] here?
The protein stability index was 2.54.

Which protein stability index does the source give for ISEYEKSLQFDEKCLSIMLAEWES [A24S] here?
Its protein stability index is 1.72.

Which protein stability index does the source give for ISEYEKSLQFDEKCLSIMLAEWEV [A24V] here?
The protein stability index was 1.91.

For ISEYEKSLQFDEKCLSIMLAEWEL [A24L], which protein stability index is on record?
Its protein stability index is 1.59.

For ISEYEKSLQFDEKCLSIMLAEWED [A24D], which protein stability index is on record?
The protein stability index was 2.5.

Which protein stability index does the source give for ISEYEKSLQFDEKCLSIMLAEWET [A24T] here?
The protein stability index was 2.

Which protein stability index does the source give for ISEYEKSLQFDEKCLSIMLAEWEC [A24C] here?
The protein stability index was 1.99.

With ISEYEKSLQFDEKCLSIMLAEWEH [A24H] as the variant, how does the protein stability index read?
Its protein stability index is 2.49.

With ISEYEKSLQFDEKCLSIMLAEWEW [A24W] as the variant, how does the protein stability index read?
Its protein stability index is 1.59.

For ISEYEKSLQFDEKCLSIMLAEWEE [A24E], which protein stability index is on record?
The protein stability index was 1.87.

Which protein stability index does the source give for ISEYEKSLQFDEKCLSIMLAEWER [A24R] here?
The protein stability index was 1.73.

With ISEYEKSLQFDEKCLSIMLAEWEF [A24F] as the variant, how does the protein stability index read?
The protein stability index was 3.13.

With ISEYEKSLQFDEKCLSIMLAEWEK [A24K] as the variant, how does the protein stability index read?
Its protein stability index is 2.27.

For ISEYEKSLQFDEKCLSIMLAEWEG [A24G], which protein stability index is on record?
The protein stability index was 2.11.

Which protein stability index does the source give for ISEYEKSLQFDEKCLSIYLAEWEA [M18Y] here?
Its protein stability index is 2.39.

For ISEYEKSLQFDEKCLSIWLAEWEA [M18W], which protein stability index is on record?
The protein stability index was 2.52.

For ISEYEKSLQFDEKCLSIMLAGWEA [E21G], which protein stability index is on record?
Its protein stability index is 1.37.

Which protein stability index does the source give for ISEYEKSLQFDEKCLSIMLASWEA [E21S] here?
The protein stability index was 2.31.

For ISEYEKSLQFDEKCLSIMLAPWEA [E21P], which protein stability index is on record?
Its protein stability index is 2.73.

Which protein stability index does the source give for ISEYEKSLQFDEKCLSIMLAKWEA [E21K] here?
Its protein stability index is 1.47.

Which protein stability index does the source give for ISEYEKSLQFDEKCLSIMLAAWEA [E21A] here?
Its protein stability index is 2.12.

For ISEYEKSLQFDEKCLSIMLADWEA [E21D], which protein stability index is on record?
The protein stability index was 2.27.

Which protein stability index does the source give for ISEYEKSLQFDEKCLSIMLAMWEA [E21M] here?
Its protein stability index is 1.9.

For ISEYEKSLQFDEKCLSIMLAYWEA [E21Y], which protein stability index is on record?
The protein stability index was 1.93.

With ISEYEKSLQFDEKCLSIMLAIWEA [E21I] as the variant, how does the protein stability index read?
The protein stability index was 3.31.

For ISEYEKSLQFDEKCLSIMLATWEA [E21T], which protein stability index is on record?
The protein stability index was 3.61.

For ISEYEKSLQFDEKCLSIMLARWEA [E21R], which protein stability index is on record?
Its protein stability index is 3.58.

Which protein stability index does the source give for ISEYEKSLQFDEKCLSIMLANWEA [E21N] here?
Its protein stability index is 2.38.

With ISEYEKSLQFDEKCLSIMLAWWEA [E21W] as the variant, how does the protein stability index read?
The protein stability index was 2.81.

For ISEYEKSLQFDEKCLSIMNAEWEA [L19N], which protein stability index is on record?
The protein stability index was 3.73.

Which protein stability index does the source give for ISEYEKSLQFDEKCLSIMDAEWEA [L19D] here?
Its protein stability index is 4.34.

With ISEYEKSLQFDEKCLSIMVAEWEA [L19V] as the variant, how does the protein stability index read?
Its protein stability index is 2.64.

For ISEYEKSLQFDEKCLSIMRAEWEA [L19R], which protein stability index is on record?
Its protein stability index is 2.39.

Which protein stability index does the source give for ISEYEKSLQFDEKCLSIMGAEWEA [L19G] here?
The protein stability index was 3.04.

For ISEYEKSLQFDEKCLSIMMAEWEA [L19M], which protein stability index is on record?
Its protein stability index is 2.12.

With ISEYEKSLQFDEKCLSIMCAEWEA [L19C] as the variant, how does the protein stability index read?
The protein stability index was 2.79.

With ISEYEKSLQFDEKCLSIMYAEWEA [L19Y] as the variant, how does the protein stability index read?
Its protein stability index is 2.88.

Which protein stability index does the source give for ISEYEKSLQFDEKCLSIMPAEWEA [L19P] here?
The protein stability index was 4.37.

For ISEYEKSLQFDEKCLSIMIAEWEA [L19I], which protein stability index is on record?
The protein stability index was 2.77.

With ISEYEKSLQFDEKCLSIMHAEWEA [L19H] as the variant, how does the protein stability index read?
The protein stability index was 3.27.

With ISEYEKSLQFDEKCLSIMKAEWEA [L19K] as the variant, how does the protein stability index read?
Its protein stability index is 3.58.

For ISEYEKSLQFDEKCLSIMFAEWEA [L19F], which protein stability index is on record?
The protein stability index was 3.03.

For ISEYEKSLQFDEKCLSIMTAEWEA [L19T], which protein stability index is on record?
Its protein stability index is 3.18.

Which protein stability index does the source give for ISEYEKSLQFDEKCLSIMEAEWEA [L19E] here?
Its protein stability index is 4.02.

With ISEYEKSLQFDEKCLSIMQAEWEA [L19Q] as the variant, how does the protein stability index read?
Its protein stability index is 3.6.

For ISEYEKSLQFDEKCLSIMSAEWEA [L19S], which protein stability index is on record?
Its protein stability index is 3.4.

For ISEYEKSLQFDEKCLSIMWAEWEA [L19W], which protein stability index is on record?
The protein stability index was 2.5.

Which protein stability index does the source give for ISEYEKSLQFDEKCLSIMAAEWEA [L19A] here?
The protein stability index was 2.59.
